B1: E3 ubiquitin-protein ligase COP1 (Arabidopsis thaliana (Mouse-ear cress)), P43254 (parent)
chain: MEEISTDPVVPAVKPDPRTSSVGEGANRHENDDGGSGGSEIGAPDLDKDLLCPICMQIIKDAFLTACGHSFCYMCIITHLRNKSDCPCCSQHLTNNQLYPNFLLDKLLKKTSARHVSKTASPLDQFREALQRGCDVSIKEVDNLLTLLAERKRKMEQEEAERNMQILLDFLHCLRKQKVDELNEVQTDLQYIKEDINAVERHRIDLYRARDRYSVKLRMLGDDPSTRNAWPHEKNQIGFNSNSLSIRGGNFVGNYQNKKVEGKAQGSSHGLPKKDALSGSDSQSLNQSTVSMARKKRIHAQFNDLQECYLQKRRQLADQPNSKQENDKSVVRREGYSNGLADFQSVLTTFTRYSRLRVIAEIRHGDIFHSANIVSSIEFDRDDELFATAGVSRCIKVFDFSSVVNEPADMQCPIVEMSTRSKLSCLSWNKHEKNHIASSDYEGIVTVWDVTTRQSLMEYEEHEKRAWSVDFSRTEPSMLVSGSDDCKVKVWCTRQEASVINIDMKANICCVKYNPGSSNYIAVGSADHHIHYYDLRNISQPLHVFSGHKKAVSYVKFLSNNELASASTDSTLRLWDVKDNLPVRTFRGHTNEKNFVGLTVNSEYLACGSETNEVYVYHKEITRPVTSHRFGSPDMDDAEEEAGSYFISAVCWKSDSPTMLTANSQGTIKVLVLAA
partner: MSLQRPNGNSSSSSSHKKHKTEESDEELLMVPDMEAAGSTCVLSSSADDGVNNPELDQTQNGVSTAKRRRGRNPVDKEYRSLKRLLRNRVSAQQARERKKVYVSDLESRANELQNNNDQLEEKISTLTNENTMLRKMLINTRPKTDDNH
B2: Transcription factor HY5-like (Arabidopsis thaliana (Mouse-ear cress)), Q8W191-1 (parent)
chain: B1 partner
partner: B1 chain

Variants of: B1
Details: with HYH, Q8W191-1

How did the “effect of a mutation on the interaction” value turn out when G524E was run?
Its value is “decreasing interaction”.

How did the “effect of a mutation on the interaction” value turn out when K550E was run?
Its value is “decreasing interaction”.

For K422E, which “effect of a mutation on the interaction” value is on record?
The value was “decreasing interaction”.

With R465E as the variant, how does the “effect of a mutation on the interaction” value read?
The value was “decreasing interaction”.

With W467A as the variant, how does the “effect of a mutation on the interaction” value read?
Its value is “decreasing interaction”.

Variants of: B2
Details: with cop1_arath COP1, P43254

For MSLQRPNGNSSSSSSHKKHKTEESDEELLMAADMEAAGSTCVLSSSADDGVNNPELDQTQNGVSTAKRRRGRNPVDKEYRSLKRLLRNRVSAQQARERKKVYVSDLESRANELQNNNDQLEEKISTLTNENTMLRKMLINTRPKTDDNH [V31A;P32A], which “effect of a mutation on the interaction” value is on record?
Its value is “decreasing interaction”.

Source: IntAct's records for PubMed 12023303
